Measured values reported in patent US20120058906A1 (published 2012).
Substitutions are numbered along the chain they refer to.

Assays:
[1] = target: T1, rHuman Notch-1/Fc Chimera, CF (R&D Systems Cat#3647-TK) (human, UniProt P46531 19-526); test: ECL (MSD Multi-Spot) binding assay, antigen spotted on plate; Fab 7.5 nM; blank spot 217
T1 construct: Bought Fc chimera; Fc part of the bought chimera not given

[2] = target: T2, rHuman Erythropoietin R/Fc Chimera, CF (R&D Systems Cat#963-ER) (human, UniProt P19235 25-250); test: as above
T2 construct: Bought Fc chimera; also called EPO R/Fc; Epo R; Fc part of the bought chimera not given
T2 sequence: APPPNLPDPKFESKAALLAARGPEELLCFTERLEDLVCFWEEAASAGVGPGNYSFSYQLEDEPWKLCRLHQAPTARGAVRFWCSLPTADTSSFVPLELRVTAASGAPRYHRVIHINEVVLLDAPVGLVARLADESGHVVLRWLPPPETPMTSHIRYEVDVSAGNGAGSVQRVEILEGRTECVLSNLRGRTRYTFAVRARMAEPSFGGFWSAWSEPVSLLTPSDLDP

[3] = target: T3, rHuman CD44/Fc Chimera, CF (R&D Systems Cat#3660-CD) (human, UniProt P16070 21-220); test: as above
T3 construct: Bought Fc chimera; Fc part of the bought chimera not given

[4] = target: T4, Recombinant Human DLL4 (R&D Systems Cat#1506-D4/CF) (human, UniProt Q9NR61 27-524); test: as above
T4 construct: Bought recombinant protein; also called delta-like protein 4; rHuman DLL4

[5] = target: T5, rHuman P-Cadherin/Fc Chimera, CF (R&D Systems Cat#861-PC) (human, UniProt P22223 108-654); test: as above
T5 construct: Bought Fc chimera; also called CDH3; Fc part of the bought chimera not given

[6] = target: T6, rHuman HGF R/c-MET/Fc Chimera, CF (R&D Systems Cat#358-MT/CF) (human, UniProt P08581 25-932); test: ECL (MSD Multi-Spot) binding, antigen spotted on plate; Fab 50 nM
T6 construct: Bought Fc chimera; also called HGF R/Fc; hepatocyte growth factor receptor; Fc part of the bought chimera not given

[7] = target: T7, rHuman P-Cadherin/Fc Chimera, CF (R&D Systems Cat#861-PC) (human, UniProt P22223 108-654); test: as above
T7 construct: Bought Fc chimera; Fc part of the bought chimera not given

[8] = target: T8, rHuman Erythropoietin R/Fc Chimera, CF (R&D Systems Cat#963-ER) (human, UniProt P19235 25-250); test: as above
T8 construct: Bought Fc chimera; also called EPO R/Fc; erythropoietin receptor; Fc part of the bought chimera not given
T8 sequence: T2 sequence

[9] = target: T9, rHuman Notch-1/Fc Chimera, CF (R&D Systems Cat#3647-TK) (human, UniProt P46531 19-526); test: as above
T9 construct: Bought Fc chimera; Fc part of the bought chimera not given

[10] = target: T10, rHuman IGF-1 sR, CF (R&D Systems Cat#391-GR) (human, UniProt P08069 31-932); test: as above
T10 construct: Bought soluble receptor; also called insulin-like growth factor-1 soluble receptor; IGF-R1

[11] = target: T11, Recombinant Human DLL4 (R&D Systems Cat#1506-D4/CF) (human, UniProt Q9NR61 27-524); test: ECL (MSD multi-spot), antigen on plate, Fab 50 nM
T11 construct: Bought recombinant protein; also called delta-like protein 4

[12] = target: T12, rHuman Erythropoietin R/Fc Chimera, CF (R&D Systems Cat#963-ER) (human, UniProt P19235 25-250); test: ECL (MSD multi-spot), antigen on plate, Fab 50 nM
T12 construct: Bought Fc chimera; also called EPO R/Fc; Epo R; not shown: Fc of the bought chimera
T12 sequence: T2 sequence

[13] = target: T13, rHuman IGF-1 sR (insulin-like growth factor-1 soluble receptor), CF (R&D Systems Cat#391-GR) (human, UniProt P08069 31-932); test: ECL (MSD multi-spot), antigen on plate, Fab 50 nM
T13 construct: Bought soluble receptor; also called IGF-R1

[14] = target: T14, rHuman HGF R/c-MET/Fc Chimera, CF (R&D Systems Cat#358-MT/CF) (human, UniProt P08581 25-932); test: ECL (MSD multi-spot), antigen on plate, Fab 50 nM
T14 construct: Bought Fc chimera; also called HGF R/Fc; not shown: Fc of the bought chimera

[15] = target: T15, rHuman CD44/Fc Chimera, CF (R&D Systems Cat#3660-CD) (human, UniProt P16070 21-220); test: ECL (MSD multi-spot), antigen on plate, Fab 50 nM
T15 construct: Bought Fc chimera; not shown: Fc of the bought chimera

[16] = target: T16, rHuman ErbB2/Fc Chimera, CF (R&D Systems Cat#1129-ER) (human, UniProt P04626 23-652); test: ECL (MSD multi-spot), antigen on plate, Fab 50 nM
T16 construct: Bought Fc chimera; also called HER2/neu; not shown: Fc of the bought chimera

[17] = target: T17, rHuman P-Cadherin/Fc Chimera, CF (R&D Systems Cat#861-PC) (human, UniProt P22223 108-654); test: ECL (MSD multi-spot), antigen on plate, Fab 50 nM
T17 construct: Bought Fc chimera; also called CDH3; not shown: Fc of the bought chimera

[18] = target: T18, rHuman Notch-1/Fc Chimera, CF (R&D Systems Cat#3647-TK) (human, UniProt P46531 19-526); test: ECL (MSD multi-spot), antigen on plate, Fab 50 nM
T18 construct: Bought Fc chimera; not shown: Fc of the bought chimera

[19] = target: T19, rHuman EGF R/Fc Chimera, CF (R&D Systems Cat#344-ER) (human, UniProt P00533 25-645); test: ECL (MSD multi-spot), antigen on plate, Fab 50 nM
T19 construct: Bought Fc chimera; also called ErbB-1; not shown: Fc of the bought chimera
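Also: blank spot per well as comparator with Hit at signal to blank ratio of 4 or more.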

B1: Fab VH6-1_IGHD3-3*01_IGHJ4*01 & V4-3_IGLJ4*01 (Fab, V domains shown)
VH: QVQLQQSGPGLVKPSQTLSLTCAISGDSVSSNSAAWNWIRQSPSRGLEWLGRTYYRSKWYNDYAVSVKSRITINPDTSKNQFSLQLNSVTPEDTAVYYCAREYYDFWSGYYTDYFDYWGQGTLVTVSS
VL: QPVLTQPTSLSASPGASARLTCTLRSGINLGSYRIFWYQQKPESPPRYLLSYYSDSSKHQGSGVPSRFSGSKDASSNAGILVISGLQSEDEADYYCMIWHSSASFVFGGGTQLIIL
notes: Tested as a Fab made in E. coli; also called IGHV6-1*01
ECL signal [1]: 392
ECL signal [2]: 443
ECL signal [3]: 444
ECL signal [4]: 598
ECL signal [5]: 352

B2: Fab VH1-46_IGHD6-6*01_IGHJ1*01_S102A_S103P_S104F_H111Y & L6_IGKJ1*01 (Fab, V domains shown)
VH: QVQLVQSGAEVKKPGASVKVSCKASGYTFTSYYMHWVRQAPGQGLEWMGIINPSGGSTSYAQKFQGRVTMTRDTSTSTVYMELSSLRSEDTAVYYCAREEYAPFSAEYFQYWGQGTLVTVSS
VL: not shown
notes: Fab made in E. coli; The heavy chain also carries the CH1 with Flag and His tags of Plasmid A, and the light chain the kappa constant region of Plasmid C
ECL signal [6]: 325
ECL signal [7]: 626
ECL signal [8]: 631
ECL signal [9]: 475
ECL signal [10]: 460

B3: Fab VH1-46_IGHD6-6*01_IGHJ1*01_S102A_S103P_S104F & L6_IGKJ1*01_S28P (Fab, V domains shown)
VH: B2 VH with Y111H
VL: EIVLTQSPATLSLSPGERATLSCRASQPVSSYLAWYQQKPGQAPRLLIYDASNRATGIPARFSGSGSGTDFTLTISSLEPEDFAVYYCQQRSNWPPWTFGQGTKVEIKR
notes: Fab
ECL signal [11]: 37700 ECL signal
ECL signal [12]: 527 ECL signal
ECL signal [13]: 355 ECL signal
ECL signal [14]: 183 ECL signal
ECL signal [15]: 340 ECL signal
ECL signal [16]: 384 ECL signal
ECL signal [17]: 431 ECL signal
ECL signal [18]: 477 ECL signal
ECL signal [19]: 328 ECL signal
